# Assay results published in publication PMC5401896 (2017).
# T1: CD20 (Homo sapiens, UniProt P11836)
# T1 chain: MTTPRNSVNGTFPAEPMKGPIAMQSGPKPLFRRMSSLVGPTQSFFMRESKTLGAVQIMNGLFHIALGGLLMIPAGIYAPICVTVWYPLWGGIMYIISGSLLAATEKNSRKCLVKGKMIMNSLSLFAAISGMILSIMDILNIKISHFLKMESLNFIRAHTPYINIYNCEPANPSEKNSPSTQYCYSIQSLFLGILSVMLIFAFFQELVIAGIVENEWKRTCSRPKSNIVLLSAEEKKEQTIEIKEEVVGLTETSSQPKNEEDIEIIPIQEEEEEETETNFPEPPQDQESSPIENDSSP
# B1: Rituximab (antibody, V domains shown)
# VH: QVQLQQPGAELVKPGASVKMSCKASGYTFTSYNMHWVKQTPGRGLEWIGAIYPGNGDTSYNQKFKGKATLTADKSSSTAYMQLSSLTSEDSAVYYCARSTYYGGDWYFNVWGAGTTVTVSA
# VL: QIVLSQSPAILSASPGEKVTMTCRASSSVSYIHWFQQKPGSSPKPWIYATSNLASGVPVRFSGSGSGTSYSLTISRVEAEDAATYYCQQWTSNPPTFGGGTKLEIK
# Key:
# CD20 [1] = target: T1, CD20; test: real-time cell binding (bivalent, Daudi)
# CD20 [2] = target: T1, CD20; test: real-time cell binding (one-to-two, Daudi)
# CD20 [3] = target: T1, CD20; test: real-time cell binding (one-to-one, Ramos)
binder,measurement,setting,value
B1,Kd,CD20 [1],7.8 nM
same,Kd,CD20 [2],0.2 nM
same,Kd,CD20 [3],0.7 nM
